From patent US20240069033A1, “METHOD FOR SCREENING FOR CANDIDATE MOLECULE CAPABLE OF FORMING COMPLEX IN CONJUNCTION WITH PLURALITY OF TARGET MOLECULES” (Chugai Seiyaku Kabushiki Kaisha, priority 2020, published 2024) come the findings set out here.

No end group written: not given here.

Assay [1] concerns the target T1, splitNanoluc1-8 (Oplophorus gracilirostris, UniProt Q9GV45, A31E/A60N/A81I/D135N/F58L/F95D/G42A/G62A/G78A/G94A/G98A/H120P/I103V/I117V/I134L/K70R/L54V/L73R/L99Q/M102E/N171T/P142E/Q151K/Q38E/Q45L/V71I/Y165I).
T1 construct: made in house
The experiment in a line: Complementation assay of split Nanoluc using mRNA display (pull-down with biotinylated splitNanoluc1-8, qPCR). The class given is binding. The note with it: for Recovered nucleic acid amount (molecules): 33 nM Display molecule + 1 μM biotinylated splitNanoluc1-8, room temperature 1 hour, streptavidin pull-down, TEV elution, qPCR; for Recovery rate (%): apparent recovery rate corrected with display efficiency; for Apparent recovery rate (%): recovered/input nucleic acid amount. As for the experimental part: Thus, each binding ability of splitNanoluc-9 (SEQ ID NO: 66), splitNanoluc-10 (SEQ ID NO: 67), and splitNanoluc9-10 fusion peptide (SEQ ID NO: 65) to splitNanoluc1-8 (SEQ ID NO: 85) was evaluated.
Display molecules in which mRNA and a peptide are linked were prepared, and the recovery rate with biotinylated splitNanoluc1-8 was examined.
For orientation: Quantitative PCR measures a nucleic acid by following its amplification.

The test system of assay [2] is anti-ubiquitin antibodies (Mouse IgG1 monoclonal antibody; clone name FK2). The assay is described as follows: Complementation assay of splitUbiquitin using mRNA display (anti-ubiquitin antibody beads, qPCR). The class given is binding. The source says:
As described above, screening a library for a candidate molecule capable of forming a complex with a plurality of target molecules requires a system that suppresses the recovery rate of a test molecule that forms a complex with only one target molecule. […] Ubiquitin I13A variants were used in the experiment. In this Example, the ubiquitin N-terminal fragment to which a GS linker is attached at the C-terminus is referred to as splitUb(N), the ubiquitin C-terminal fragment to which a GS linker is attached at the C-terminus is referred to as splitUb(C), and the protein in which splitUb(N) and splitUb(C) are linked by a GSGS linker and to which a GS linker is attached at the C-terminus is referred to as splitUb(N-C).
To simultaneously evaluate the interactions of the ubiquitin N-terminal fragment and the C-terminal fragment when they are independent, the conditions of mixing the display molecule of splitUb(N) and the display molecule of splitUb(C) at 1: 1 were reacted in the same way.

T1 sequence (Q9GV45 other isoform, or with tags, fused parts or gaps with the stated changes): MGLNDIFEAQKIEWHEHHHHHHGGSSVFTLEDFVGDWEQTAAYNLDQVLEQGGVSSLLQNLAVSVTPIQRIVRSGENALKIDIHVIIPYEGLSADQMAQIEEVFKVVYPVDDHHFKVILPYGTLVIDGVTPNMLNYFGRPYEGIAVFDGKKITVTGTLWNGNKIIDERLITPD

On to “splitNanoluc9-10: mRNA Display molecule of Nanoluc 9th and 10th strands linked by GS linker, with TEV sequence (SEQ ID NO: 65) (MGSMLFRVTINSGGGSGGGGSGVSGWRLFKKISGSGSGSGSENLYFQGKK; also: mRNA display conjugate)”, for which, in assay [1], the “Recovered nucleic acid amount (molecules)” value was found to be 3.45E+09 molecules, the “Recovery rate (%)” value worked out at 33.155% and the “Apparent recovery rate (%)” value came out at 12.632%.

In the case of “splitNanoluc-9: mRNA Display molecule of Nanoluc 9th strand with GS linker and TEV sequence (SEQ ID NO: 66) (MGSMLFRVTINSGSGSGSGSENLYFQGKK; also: mRNA display conjugate)”, in assay [1], the “Recovered nucleic acid amount (molecules)” value amounted to 2.53E+06 molecules, the “Recovery rate (%)” value is 0.049% and the “Apparent recovery rate (%)” value is reported as 0.008%.

Consider “splitUb (N): mRNA Display molecule of ubiquitin (I13A) N-terminal fragment with GS linker (SEQ ID NO: 45) (MMQIFVKTLTGKTATLEVEPSDTIENVKAKIQDKEGIPGSGSGSGSKK; also: mRNA display linkage)”, for which, in assay [2] (anti-ubiquitin antibody (FK2) magnetic beads, room temperature 1 hour, qPCR), the “Recovered nucleic acid amount (molecules)” value is given as 1.63E+10 molecules. Also, the “Recovery rate (%)” value in assay [2] (apparent recovery rate corrected with display efficiency) came to 1.040%. In assay [2] (recovered/input nucleic acid amount), the “Apparent recovery rate (%)” value worked out at 0.931%.

“splitNanoluc-10: mRNA Display molecule of Nanoluc 10th strand with GS linker and TEV sequence (SEQ ID NO: 67) (MVSGWRLFKKISGSGSGSGSENLYFQGKK; also: mRNA display conjugate)”: in assay [1], the “Recovered nucleic acid amount (molecules)” value came out at 5.04E+06 molecules, the “Recovery rate (%)” value is reported as 0.016% and the “Apparent recovery rate (%)” value is reported as 0.011%.
